B1: Sec1-V5-His6 (natural protein)
chain: MSDLIELQRNYLIGVLNQIETKNNLKFLIIDKTVETILSYLFLTPQELLNNVTSVDLIDSPTRKGQSSIEAIYILEPTKYNINCIDADFMVRPPKYRRCHIRFLPGLTNPIFQFFQSKRYIAQNLESFKPIELGFFVKESQFFETLQMEHSLQVFFNNNCKALIPTNVRKIVGSLVSLCVITGEYPIVRYSVSNPVEEEDARNGNAVVNANSLTRSIANAFQIAIDTYARNNPDFPPQNTERPRSILIITDRTLDPFAPILHDFSYQAMAYDLVANVDTQKDIYHYSAENEAGEQEEKVSKLVDLYDPDWIDLKHQHIMDANEYIQGRIKELIAKNPLLVDRSNVKNTTDLLSVVAHLKDFDEERRRLILHKTLVDECLGENAERKLADISAIEQNLSGFGMDFSGEKIKHIIDDLLPALAMKEPTILDKLRYIIAYALFRGGIIELDFIKLLNFIGVTHEHENFQQYLKIFRNYDLIDFKLIKDKPKDKPFQKEWFHDTLVNDPNIYHTSRFVPAVGNILSKVIANPLLLSEQYFPYLKDKPIELLNEEEFQAGLANTSANSSSSLRNPRHKAAWTTKSSNIKKNIPRQRFFYYVIGGISIPEIKAAYDQSNLKNRDIFIGSDEILTPTKFLDEVERLQNPREFFKFKEDQRQQVNPPDFLLREMKPVAQPVSHVHLKSQDNSPKSGTSSPKAAGSLKSEPPEKEKKRSKFSRFLKRKSHHDK

Key:
Recombinant Sec6 (1–805) [1] = biological target: T1, Recombinant Sec6 (1–805) (yeast, UniProt P32844 1-805); assay: pull-down
T1 sequence: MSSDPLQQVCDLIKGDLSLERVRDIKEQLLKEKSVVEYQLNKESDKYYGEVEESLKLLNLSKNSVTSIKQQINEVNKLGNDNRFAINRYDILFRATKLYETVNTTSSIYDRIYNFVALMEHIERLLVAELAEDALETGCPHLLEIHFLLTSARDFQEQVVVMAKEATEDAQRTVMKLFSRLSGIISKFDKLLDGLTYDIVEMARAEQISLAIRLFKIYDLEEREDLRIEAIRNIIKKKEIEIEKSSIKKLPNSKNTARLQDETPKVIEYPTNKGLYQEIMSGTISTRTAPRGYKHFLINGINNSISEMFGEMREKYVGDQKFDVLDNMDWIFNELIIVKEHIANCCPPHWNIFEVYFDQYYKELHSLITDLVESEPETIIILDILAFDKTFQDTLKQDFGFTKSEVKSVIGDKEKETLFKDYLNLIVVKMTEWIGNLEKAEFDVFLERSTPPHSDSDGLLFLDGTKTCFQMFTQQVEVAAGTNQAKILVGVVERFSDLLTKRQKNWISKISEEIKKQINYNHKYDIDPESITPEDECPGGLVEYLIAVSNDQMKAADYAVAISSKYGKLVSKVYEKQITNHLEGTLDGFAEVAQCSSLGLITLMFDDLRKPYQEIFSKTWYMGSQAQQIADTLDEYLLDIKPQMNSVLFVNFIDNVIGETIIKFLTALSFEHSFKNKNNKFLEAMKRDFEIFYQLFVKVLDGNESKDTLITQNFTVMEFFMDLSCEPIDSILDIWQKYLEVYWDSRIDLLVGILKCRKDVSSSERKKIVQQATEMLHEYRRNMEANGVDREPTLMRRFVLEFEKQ

Recombinant Sec6 (1–805) [2] = biological target: T1, Recombinant Sec6 (1–805); assay: […]
Recombinant Sec6 (1–805) [3] = biological target: T1, Recombinant Sec6 (1–805); assay: SEC
Sec1-V5-His6 = biological target: B1; assay: pull-down

B1
Kd (Recombinant Sec6 (1–805) [1]): ~1700 nM

B2: MBP-Sec9CT (domain or fragment)
chain: ARQQQEEDEAVDEIKQEIKFTKQSSVASTRNTLKMAQDAERAGMNTLGMLGHQSEQLNNVEGNLDLMKVQNKVADEKVAELKKLNRSILAVHVSNPFNSKRRRREREEQLKNRKIEEKLMREQTSQQLSQSTQRIEGAMNANNNISEVRERYQRKNVLEKAKRYQFENDEEDDEMELEIDRNLDQIQQVSNRLKKMALTTGKELDSQQKRLNNIEESTDDLDINLHMNTNRLAGIR
binding result (Recombinant Sec6 (1–805) [2]): binds

B3: Sec9CT (416–651) (domain or fragment)
chain: ARQQQEEDEAVDEIKQEIKFTKQSSVASTRNTLKMAQDAERAGMNTLGMLGHQSEQLNNVEGNLDLMKVQNKVADEKVAELKKLNRSILAVHVSNPFNSKRRRREREEQLKNRKIEEKLMREQTSQQLSQSTQRIEGAMNANNNISEVRERYQRKNVLEKAKRYQFENDEEDDEMELEIDRNLDQIQQVSNRLKKMALTTGKELDSQQKRLNNIEESTDDLDINLHMNTNRLAGIR
binding result (Recombinant Sec6 (1–805) [3]): binds

B4: Sso1, cytoplasmic region (domain or fragment)
chain: MSYNNPYQLETPFEESYELDEGSSAIGAEGHDFVGFMNKISQINRDLDKYDHTINQVDSLHKRLLTEVNEEQASHLRHSLDNFVAQATDLQFKLKNEIKSAQRDGIHDTNKQAQAENSRQRFLKLIQDYRIVDSNYKEENKEQAKRQYMIIQPEATEDEVEAAISDVGGQQIFSQALLNANRRGEAKTALAEVQARHQELLKLEKSMAELTQLFNDMEELVIEQQENVDVIDKNVEDAQLDVEQGVGHTDKAVKSARKARKNKIR
Kd (Sec1-V5-His6): > 10000 nM
